Substitutions are numbered along the chain they refer to.
What was measured:
[1] = biological target: T1, human CD20 (human, UniProt P11836 1-297); experiment: cell-based or functional assay
T1 sequence (looked up): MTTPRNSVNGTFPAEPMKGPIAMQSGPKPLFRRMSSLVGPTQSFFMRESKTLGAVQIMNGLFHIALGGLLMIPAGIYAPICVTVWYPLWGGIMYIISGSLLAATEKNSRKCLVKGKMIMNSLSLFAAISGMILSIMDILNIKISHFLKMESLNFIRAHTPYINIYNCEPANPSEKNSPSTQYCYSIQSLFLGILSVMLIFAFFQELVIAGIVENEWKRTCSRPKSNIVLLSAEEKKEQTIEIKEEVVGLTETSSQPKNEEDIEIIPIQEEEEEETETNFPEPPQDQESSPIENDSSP

[2] = biological target: T1, human CD20; experiment: cell-based or functional assay; remark: listed apart in the source
[3] = biological target: T1, human CD20; experiment: cell-based or functional assay; remark: listed apart in the source
[4] = biological target: T1, human CD20; experiment: cell-based or functional assay; remark: listed apart in the source
[5] = biological target: T2, human CD3 (human, UniProt P07766 23-207); experiment: cell-based or functional assay
[6] = biological target: T2, human CD3; experiment: cell-based or functional assay; remark: listed apart in the source
[7] = biological target: human Her3 (human, UniProt P21860 20-1342); experiment: cell-based or functional assay
[8] = biological target: T3, human MCSP (melanoma-associated chondroitin sulfate proteoglycan, chondroitin sulfate proteoglycan 4) (human, UniProt Q6UVK1 30-2322); experiment: cell-based or functional assay
[9] = biological target: T2, human CD3; experiment: flow cytometry on Jurkat-NFAT cells
[10] = biological target: T3, human MCSP (melanoma-associated …); experiment: flow cytometry on MCSP-expressing MV-3 cells

T3 sequence (Q6UVK1 30-2322): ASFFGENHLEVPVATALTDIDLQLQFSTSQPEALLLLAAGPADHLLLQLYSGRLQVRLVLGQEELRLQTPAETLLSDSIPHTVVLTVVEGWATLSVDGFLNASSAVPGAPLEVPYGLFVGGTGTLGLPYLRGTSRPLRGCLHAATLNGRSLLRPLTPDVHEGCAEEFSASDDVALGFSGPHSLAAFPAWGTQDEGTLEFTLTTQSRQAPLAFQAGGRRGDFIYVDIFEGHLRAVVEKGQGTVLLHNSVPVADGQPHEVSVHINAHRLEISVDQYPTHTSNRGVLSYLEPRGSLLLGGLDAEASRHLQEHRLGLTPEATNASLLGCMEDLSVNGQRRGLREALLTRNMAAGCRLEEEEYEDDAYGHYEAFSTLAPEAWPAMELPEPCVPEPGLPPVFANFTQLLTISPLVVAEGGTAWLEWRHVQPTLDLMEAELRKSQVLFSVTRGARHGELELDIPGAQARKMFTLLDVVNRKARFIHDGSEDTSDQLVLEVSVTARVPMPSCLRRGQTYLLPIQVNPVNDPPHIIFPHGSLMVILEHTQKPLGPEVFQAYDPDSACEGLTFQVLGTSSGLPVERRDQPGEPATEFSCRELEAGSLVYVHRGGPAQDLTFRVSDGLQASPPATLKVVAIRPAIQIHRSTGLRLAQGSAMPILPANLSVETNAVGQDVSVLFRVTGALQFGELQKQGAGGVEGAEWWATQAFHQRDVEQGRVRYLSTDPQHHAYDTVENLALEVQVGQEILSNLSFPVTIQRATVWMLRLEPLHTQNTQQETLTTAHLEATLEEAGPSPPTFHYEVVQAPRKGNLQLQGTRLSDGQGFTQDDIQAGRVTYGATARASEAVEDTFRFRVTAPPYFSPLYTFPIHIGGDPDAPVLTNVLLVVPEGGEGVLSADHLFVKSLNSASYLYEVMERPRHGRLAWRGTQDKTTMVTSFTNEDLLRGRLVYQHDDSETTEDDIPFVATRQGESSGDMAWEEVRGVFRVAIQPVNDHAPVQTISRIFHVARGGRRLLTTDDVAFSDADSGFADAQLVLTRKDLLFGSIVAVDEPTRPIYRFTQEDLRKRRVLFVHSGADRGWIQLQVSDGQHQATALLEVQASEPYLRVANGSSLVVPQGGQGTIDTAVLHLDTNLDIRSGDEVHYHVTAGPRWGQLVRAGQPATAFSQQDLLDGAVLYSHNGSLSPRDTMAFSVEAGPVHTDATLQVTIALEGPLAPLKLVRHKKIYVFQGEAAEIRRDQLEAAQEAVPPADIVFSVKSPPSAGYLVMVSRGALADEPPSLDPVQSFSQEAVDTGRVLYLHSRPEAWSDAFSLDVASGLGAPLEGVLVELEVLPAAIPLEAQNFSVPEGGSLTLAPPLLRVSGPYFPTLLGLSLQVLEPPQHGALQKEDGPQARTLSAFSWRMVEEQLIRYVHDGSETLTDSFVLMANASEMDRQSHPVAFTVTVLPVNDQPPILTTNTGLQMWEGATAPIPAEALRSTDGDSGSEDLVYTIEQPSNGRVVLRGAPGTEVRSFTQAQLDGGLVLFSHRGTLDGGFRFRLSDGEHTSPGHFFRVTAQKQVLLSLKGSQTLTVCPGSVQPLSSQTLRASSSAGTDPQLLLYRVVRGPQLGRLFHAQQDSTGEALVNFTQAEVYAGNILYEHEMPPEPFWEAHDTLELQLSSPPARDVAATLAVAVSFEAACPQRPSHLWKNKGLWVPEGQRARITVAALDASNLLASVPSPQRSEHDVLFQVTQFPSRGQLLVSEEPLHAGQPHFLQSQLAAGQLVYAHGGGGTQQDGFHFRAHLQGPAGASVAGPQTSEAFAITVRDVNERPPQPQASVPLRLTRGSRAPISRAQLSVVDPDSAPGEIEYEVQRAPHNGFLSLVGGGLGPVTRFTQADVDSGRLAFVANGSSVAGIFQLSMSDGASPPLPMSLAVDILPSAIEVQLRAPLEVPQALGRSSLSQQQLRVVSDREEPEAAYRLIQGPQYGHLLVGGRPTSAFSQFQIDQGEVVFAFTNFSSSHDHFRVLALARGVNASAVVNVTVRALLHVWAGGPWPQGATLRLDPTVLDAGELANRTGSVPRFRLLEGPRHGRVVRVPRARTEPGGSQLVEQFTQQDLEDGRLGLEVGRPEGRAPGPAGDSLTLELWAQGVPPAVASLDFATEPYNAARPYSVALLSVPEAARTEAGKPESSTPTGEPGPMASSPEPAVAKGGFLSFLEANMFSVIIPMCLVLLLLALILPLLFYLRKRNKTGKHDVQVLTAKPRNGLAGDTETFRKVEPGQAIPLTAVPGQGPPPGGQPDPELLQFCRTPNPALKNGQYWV

B1: anti-CD20/anti-CD3 TCB molecule H: "1+1 CrossMab" with charge modifications (VH/VL exchange in CD3 binder, charge modification in CD20 binder) (bispecific antibody, human IgG1, kappa, N297G)
heavy 1: not shown
heavy 2: QAVVTQEPSLTVSPGGTVTLTCGSSTGAVTTSNYANWVQEKPGQAFRGLIGGTNKRAPGTPARFSGSLLGGKAALTLSGAQPEDEAEYYCALWYSNLWVFGGGTKLTVLSSASTKGPSVFPLAPSSKSTSGGTAALGCLVKDYFPEPVTVSWNSGALTSGVHTFPAVLQSSGLYSLSSVVTVPSSSLGTQTYICNVNHKPSNTKVDKKVEPKSCDKTHTCPPCPAPELLGGPSVFLFPPKPKDTLMISRTPEVTCVVVDVSHEDPEVKFNWYVDGVEVHNAKTKPREEQYGSTYRVVSVLTVLHQDWLNGKEYKCKVSNKALPAPIEKTISKAKGQPREPQVYTLPPCRDELTKNQVSLWCLVKGFYPSDIAVEWESNGQPENNYKTTPPVLDSDGSFFLYSKLTVDKSRWQQGNVFSCSVMHEALHNHYTQKSLSLSP
light 1: DIVMTQTPLSLPVTPGEPASISCRSSKSLLHSNGITYLYWYLQKPGQSPQLLIYQMSNLVSGVPDRFSGSGSGTDFTLKISRVEAEDVGVYYCAQNLELPYTFGGGTKVEIKRTVAAPSVFIFPPSDRKLKSGTASVVCLLNNFYPREAKVQWKVDNALQSGNSQESVTEQDSKDSTYSLSSTLTLSKADYEKHKVYACEVTHQGLSSPVTKSFNRGEC
light 2: EVQLLESGGGLVQPGGSLRLSCAASGFTFSTYAMNWVRQAPGKGLEWVSRIRSKYNNYATYYADSVKGRFTISRDDSKNTLYLQMNSLRAEDTAVYYCVRHGNFGNSYVSWFAYWGQGTLVTVSSASVAAPSVFIFPPSDEQLKSGTASVVCLLNNFYPREAKVQWKVDNALQSGNSQESVTEQDSKDSTYSLSSTLTLSKADYEKHKVYACEVTHQGLSSPVTKSFNRGEC
EC50 of tumor cell lysis (LDH release), Z138 cells + human PBMCs, 21-24 h, panel A [1]: 0.0175 nM | EC50 24 h of CD4 T cell activation, Z138 cells (average of 3 donors) [2]: 0.122 nM | EC50 24 h of CD8 T cell activation, Z138 cells (average of 3 donors) [2]: 0.175 nM | EC50 24 h of tumor lysis, Z138 cells (average of 3 donors) [2]: 0.751 nM | EC50 24 h of tumor lysis, Ocly-18 cells [3]: 0.25 nM | EC50 24 h of tumor lysis, SU-DHL-5 cells [3]: 0.0697 nM | EC50 24 h of tumor lysis, SU-DHL-8 cells [3]: 0.219 nM | EC50 24 h of tumor lysis, Toledo cells [3]: 0.12 nM | EC50 24 h of tumor lysis, U2932 cells [3]: 0.0727 nM | EC50 24 h of B cell depletion in normal human whole blood [4]: 3.75 nM | EC50 of CD3 activation, Jurkat-NFAT reporter cells co-cultured with Z138 cells (luminescence, 6 h) [5]: 1 nM

B2: anti-CD20/anti-CD3 TCB molecule A: "2+1 IgG CrossFab, inverted" without charge modifications (CH1/CL exchange in CD3 binder) (bispecific antibody)
chain 1: not shown
chain 2: QVQLVQSGAEVKKPGSSVKVSCKASGYAFSYSWINWVRQAPGQGLEWMGRIFPGDGDTDYNGKFKGRVTITADKSTSTAYMELSSLRSEDTAVYYCARNVFDGYWLVYWGQGTLVTVSSASTKGPSVFPLAPSSKSTSGGTAALGCLVKDYFPEPVTVSWNSGALTSGVHTFPAVLQSSGLYSLSSVVTVPSSSLGTQTYICNVNHKPSNTKVDKKVEPKSCDKTHTCPPCPAPEAAGGPSVFLFPPKPKDTLMISRTPEVTCVVVDVSHEDPEVKFNWYVDGVEVHNAKTKPREEQYNSTYRVVSVLTVLHQDWLNGKEYKCKVSNKALGAPIEKTISKAKGQPREPQVCTLPPSRDELTKNQVSLSCAVKGFYPSDIAVEWESNGQPENNYKTTPPVLDSDGSFFLVSKLTVDKSRWQQGNVFSCSVMHEALHNHYTQKSLSLSP
chain 3: QAVVTQEPSLTVSPGGTVTLTCGSSTGAVTTSNYANWVQEKPGQAFRGLIGGTNKRAPGTPARFSGSLLGGKAALTLSGAQPEDEAEYYCALWYSNLWVFGGGTKLTVLSSASTKGPSVFPLAPSSKSTSGGTAALGCLVKDYFPEPVTVSWNSGALTSGVHTFPAVLQSSGLYSLSSVVTVPSSSLGTQTYICNVNHKPSNTKVDKKVEPKSC
chain 4: B1 light 1 with R128E, K129Q
EC50 of tumor cell lysis (LDH release), Z138 cells + human PBMCs, 21-24 h, panel A [1]: 0.00076 nM

B3: anti-Her2/anti-CD3 "2+1 IgG CrossFab, inverted" molecule with charge modifications (Her2 TCB) (bispecific antibody)
chain 1: not shown
chain 2: not shown
chain 3: not shown
light: B1 light 2
EC50 of activation of Jurkat-NFAT reporter cells co-cultured with KPL4 cells (luminescence, 5 h) [6]: 0.0344 nM

B4: anti-Her3/anti-CD3 "2+1 IgG CrossFab" molecule with charge modifications (Her3 TCB) (bispecific antibody)
chain 1: not shown
chain 2: QVQLVQSGAEVKKPGASVKVSCKASGYTFRSSYISWVRQAPGQGLEWMGWIYAGTGSPSYNQKLQGRVTMTTDTSTSTAYMELRSLRSDDTAVYYCARHRDYYSNSLTYWGQGTLVTVSSASTKGPSVFPLAPSSKSTSGGTAALGCLVEDYFPEPVTVSWNSGALTSGVHTFPAVLQSSGLYSLSSVVTVPSSSLGTQTYICNVNHKPSNTKVDEKVEPKSCDKTHTCPPCPAPEAAGGPSVFLFPPKPKDTLMISRTPEVTCVVVDVSHEDPEVKFNWYVDGVEVHNAKTKPREEQYNSTYRVVSVLTVLHQDWLNGKEYKCKVSNKALGAPIEKTISKAKGQPREPQVCTLPPSRDELTKNQVSLSCAVKGFYPSDIAVEWESNGQPENNYKTTPPVLDSDGSFFLVSKLTVDKSRWQQGNVFSCSVMHEALHNHYTQKSLSLSP
chain 3: not shown
light: B1 light 2
EC50 of activation of Jurkat-NFAT reporter cells co-cultured with KPL4 cells (luminescence, 5 h) [6]: 0.022 nM | EC50 of Caspase 3/7 activity (luminescence) in KPL-4-Caspase-3/7 GloSensor target cells + PBMCs, 6.5 h [7]: 0.0007 nM | EC50 of tumor cell lysis (LDH release), KPL4 cells + human PBMCs, 24 h [7]: 0.00254 nM | EC50 of tumor cell lysis (LDH release), KPL4 cells + human PBMCs, 48 h [7]: 0.00053 nM

B5: anti-MCSP/anti-CD3 "(Fab)2-CrossFab" molecule with charge modifications in the MCSP binders ((Fab)2-XFab-LC007cv) (bispecific antibody)
chain 1: EVQLQESGPGLVKPSQSLSLTCSVTGYSITSGYYWNWIRQFPGNKLEWMGYITYDGSNNYNPSLKNRISITRDTSKNQFFLKLNSVTTEDTATYYCADFDYWGQGTTLTVSSASTKGPSVFPLAPSSKSTSGGTAALGCLVEDYFPEPVTVSWNSGALTSGVHTFPAVLQSSGLYSLSSVVTVPSSSLGTQTYICNVNHKPSNTKVDEKVEPKSCDGGGGSGGGGSEVQLQESGPGLVKPSQSLSLTCSVTGYSITSGYYWNWIRQFPGNKLEWMGYITYDGSNNYNPSLKNRISITRDTSKNQFFLKLNSVTTEDTATYYCADFDYWGQGTTLTVSSASTKGPSVFPLAPSSKSTSGGTAALGCLVEDYFPEPVTVSWNSGALTSGVHTFPAVLQSSGLYSLSSVVTVPSSSLGTQTYICNVNHKPSNTKVDEKVEPKSCDGGGGSGGGGSDIQMTQSPSSLSASVGDRVTITCRASQDIRNYLNWYQQKPGKAPKLLIYYTSRLESGVPSRFSGSGSGTDYTLTISSLQPEDFATYYCQQGNTLPWTFGQGTKVEIKSSASTKGPSVFPLAPSSKSTSGGTAALGCLVKDYFPEPVTVSWNSGALTSGVHTFPAVLQSSGLYSLSSVVTVPSSSLGTQTYICNVNHKPSNTKVDKKVEPKSC
chain 2: EVQLVESGGGLVQPGGSLRLSCAASGYSFTGYTMNWVRQAPGKGLEWVALINPYKGVSTYNQKFKDRFTISVDKSKNTAYLQMNSLRAEDTAVYYCARSGYYGDSDWYFDVWGQGTLVTVSSASVAAPSVFIFPPSDEQLKSGTASVVCLLNNFYPREAKVQWKVDNALQSGNSQESVTEQDSKDSTYSLSSTLTLSKADYEKHKVYACEVTHQGLSSPVTKSFNRGEC
chain 3: DIVLTQSPSSLSASLGDRVTISCSASQGIRNYLNWYQQRPDGTVKLLIYYTSSLHSGVPSRFSGSGSGTDYSLTISNLEPEDIATYYCQQYSKLPWTFGGGTKLEIKRTVAAPSVFIFPPSDRKLKSGTASVVCLLNNFYPREAKVQWKVDNALQSGNSQESVTEQDSKDSTYSLSSTLTLSKADYEKHKVYACEVTHQGLSSPVTKSFNRGEC
notes: The chains are one heavy chain, the anti-MCSP Fab light chain (twice); No Fc domain
EC50 of tumor cell lysis (LDH release), MV-3 cells + human PBMCs, 24 h [8]: 0.0028 nM | EC50 of tumor cell lysis (LDH release), MV-3 cells + human PBMCs, 48 h [8]: 0.0086 nM | binding result [9]: binds | EC50 [10]: 2.3 nM

B6: anti-CD20/anti-CD3 TCB molecule C: "2+1 IgG CrossFab" with charge modifications (VH/VL exchange in CD3 binder, charge modification in CD20 binders) (bispecific antibody)
heavy 1: not shown
heavy 2: B2 chain 2 with K149E, K215E
light 1: B1 light 1
light 2: B1 light 2
EC50 of tumor cell lysis (LDH release), Z138 cells + human PBMCs, 21-24 h, panel B [1]: 0.0433 nM
